The values that follow come from article PMC4303003, “Repressive mutations restore function-loss caused by the disruption of trimerization in Escherichia coli multidrug transporter AcrB” (Frontiers in Microbiology, 2015).

The data set deals with the molecule itself. In words: native gel or EMSA; BN-PAGE of purified AcrB proteins; loading buffer with 1% dodecylmaltoside, 0.1% Coomassie G-250, pH 7.0; 4-15% gradient gel, 15 mA, 4°C, 2 h; trimer and monomer bands quantified with ImageJ; trimer to monomers. On the technique in general: In EMSA bound probe runs differently from free probe, usually more slowly.

B1: wild type AcrB (Escherichia coli multidrug transporter AcrB) (natural protein)
chain: MPNFFIDRPIFAWVIAIIIMLAGGLAILKLPVAQYPTIAPPAVTISASYPGADAKTVQDTVTQVIEQNMNGIDNLMYMSSNSDSTGTVQITLTFESGTDADIAQVQVQNKLQLAMPLLPQEVQQQGVSVEKSSSSFLMVVGVINTDGTMTQEDISDYVAANMKDAISRTSGVGDVQLFGSQYAMRIWMNPNELNKFQLTPVDVITAIKAQNAQVAAGQLGGTPPVKGQQLNASIIAQTRLTSTEEFGKILLKVNQDGSRVLLRDVAKIELGGENYDIIAEFNGQPASGLGIKLATGANALDTAAAIRAELAKMEPFFPSGLKIVYPYDTTPFVKISIHEVVKTLVEAIILVFLVMYLFLQNFRATLIPTIAVPVVLLGTFAVLAAFGFSINTLTMFGMVLAIGLLVDDAIVVVENVERVMAEEGLPPKEATRKSMGQIQGALVGIAMVLSAVFVPMAFFGGSTGAIYRQFSITIVSAMALSVLVALILTPALCATMLKPIAKGDHGEGKKGFFGWFNRMFEKSTHHYTDSVGGILRSTGRYLVLYLIIVVGMAYLFVRLPSSFLPDEDQGVFMTMVQLPAGATQERTQKVLNEVTHYYLTKEKNNVESVFAVNGFGFAGRGQNTGIAFVSLKDWADRPGEENKVEAITMRATRAFSQIKDAMVFAFNLPAIVELGTATGFDFELIDQAGLGHEKLTQARNQLLAEAAKHPDMLTSVRPNGLEDTPQFKIDIDQEKAQALGVSINDINTTLGAAWGGSYVNDFIDRGRVKKVYVMSEAKYRMLPDDIGDWYVRAADGQMVPFSAFSSSRWEYGSPRLERYNGLPSMEILGQAAPGKSTGEAMELMEQLASKLPTGVGYDWTGMSYQERLSGNQAPSLYAISLIVVFLCLAALYESWSIPFSVMLVVPLGVIGALLAATFRGLTNDVYFQVGLLTTIGLSAKNAILIVEFAKDLMDKEGKGLIEATLDAVRMRLRPILMTSLAFILGVMPLVISTGAGSGAQNAVGTGVMGGMVTATVLAIFFVPVFFVVVRRRFSRKNEDIEHSHTVDHH
notes: AcrB, inner membrane RND multidrug transporter of Escherichia coli, encoded on plasmid pQE70-AcrB; also called WT AcrB; WT; source: E. coli BW25113ΔacrB transformed with pQE70-AcrB (in cells for cross-linking); purified as described (Lu et al., 2011) for BN-PAGE
For B1, the binding result was “binds”.
